The DeepSol protein solubility set

assay: soluble on expression in E. coli; label from the status in PepcDB or PDB records

Sequence | soluble on expression in E. coli
MLMPEMDRRRMMMMAGFGALAAALPAPTAWADPSRPAAPAGPTPAPAAPAAATGGLLFHDEFDGPAGSVPDPSKWQVSNHRTPIKNPVGFDRPQFFGQYRDSRQNVFLDGNSNLVLRATREGNRYFGGLVHGLWRGGIGTTWEARIKFNCLAPGMWPAWWLSNDDPGRSGEIDLIEWYGNGTWPSGTTVHANPDGTAFETCPIGVDGGWHNWRVTWNPSGMYFWLDYADGIEPYFSVPATGIEDLNEPIREWPFNDPGYKVFPVLNLAVGGSGGGDPATGSYPQEMLVDWVRVF | not soluble
MSLASIMFGVFVHALECSRPVGLVQAKLLLWTLTASIMVIILSEEGEVAEQLEFFPVQSPCRGICQSDERGFCRGCFRSRDERFNWNKMSDGEKQEVLRLCRQRLMRKLRANKPASSDEPEQPSLFEGHHHHHH | not soluble
MGSDKIHHHHHHMKWTTPADLKAQVRKLWDRGLLLASLAGGEALFPRRLTLKSPDSRGLSERFPEVREWIAQLCSAAGFYRIEWRSVNHRVLGANEIPAAIWIDTLEEALGLIGKRRAADQFATLVELTRKKQPELVPWLAKRPLRALELSEDWPRLLEIVTWVLKHPRPAIYLRQIDLPGVHTKFIEGHRGVLAELLDLVLPGEAIDATHTGIGGFCRRYGFLDKPLRVRFRVLDRNIRLPAVESDQDITLTQASFASLDLPASKVFITENEINFLAFPDVPDAMVIFGAGYGFDNLAAAPWLHQRGIYYWGDIDTHGFAILNQLRGFFPHAVSFLMDLQTLLAHRSLWGVEKQPETGTLARLNSEESALYDQLRRNHWGERVRLEQERIGFGFLHDVLRRL | not soluble
SKNPHLPQPVRVTVGPNAPPVFGMFYPDRYMVGVDCILVDGMFVSRSRFEKLGGSLMAKWYRSIRVVDTAEPLGAWLERHNLPVFTGKARQRRQRGAPSTN | soluble
GMGNIYQITVEEKAEHQRTLSFEFSLHDDLFKLLEKVDGKMDMTPEQTQAFMVGLKLFGEVMMQQRKHPLFKEFSAPFRAFMMNLKKQ | soluble
GPLGSGGGTIAMLNEISSDTLEQLYSLAFNQYQSGKYEDAHKVFQALCVLDHYDSRFFLGLGACRQAMGQYDLAIHSYEEGAVMDIKEPRFPFHAAECLLQKGELAEAESGLFLAQELIANKPEFKELSTRVSSMLEAIKLKKEMKHE | soluble
MHHHHHHSSGVDLGTENLYFQSMVEDHYEMGEELGSGQFAIVRKCRQKGTGKEYAAKFIKKRRLSSSRRGVSREEIEREVNILREIRHPNIITLHDIFENKTDVVLILELVSGGELFDFLAEKESLTEDEATQFLKQILDGVHYLHSKRIAHFDLKPENIMLLDKNVPNPRIKLIDFGIAHKIEAGNEFKNIFGTPEFVAPEIVNYEPLGLEADMWSIGVITYILLSGASPFLGETKQETLTNISAVNYDFDEEYFSNTSELAKDFIRRLLVKDPKRRMTIAQSLEHSWIKAIRRRNVRGEDSG | soluble
MRITFIGGGNMAGAIIGGLARQGGHRIHVVEHQQDKLDQLAAGFGCSGSQALPERFAADEVVVLAVKPQQLRELCLALAPVLNGALVVSIAAGIRLDALARWLGSRRIVRVMPNTPAMVGKGVSGLYADAAVSAADRDAAETVMRAAGLTVWLADEAGIDDITCVSGSGPAYVFYFIESMIEAAAKAGFGEDKARELVLATFDGAVELARQSPLPVAELRRNVMSKGGTTERAIARFEAEGVKAAIVAGAMDCRDRSIEMGRELSQELEHHHHHH | soluble
MSLRDTVLVVDDEPDSLRFLADTLEGAGIRVLVAISGDAALDVLQHVEPDLILMDGVMPGRSGFETTACIKARPELAHVPVVFMTGLHDDEHVVRGFEVGGVDYLRKPVNVQELLARVRVHVGNARAIQAGAAGLDATGRLMMATDLQGGLLWCTPLAERAIARACPGWSRDAGALPDALREPVRKMLGRGAAQSGSVKVEQVDGTMELVVIAQYRGQEVLIRVNELNPKADIALLQQKLGLTDREAEVLLWTSYGKSNATISEVLAISPRTVQKHLERIYEKLGIETRAAAAAVAIKALGNEGHHHHHH | soluble
GHHHHHHAIAENLYFQSETSETDSTGNTQTCETRQTRSNSWTAWGIHAISTITDGAKQLYTKALGLDELEEKKLEDEEGVTHVEVDEKTKRDLWNQLSTLVGADVINMRLSLPVWLFEPTTALQRMCETLQFHQLLDMAATCEEPVERDALVAAFTVSAFAHTERVYKPFNPVLGETFEWTSRDGTTRVLCEQVSHHPPVSVSYTEGPGWVAQEVFSCNAYFLGNSVEIRNTGSRYVYLTSFDERYEWTLPVSAAQNLFVGGSFIDHYGELILRSSPRGSVTSLTFTKCGWFGRGRYAVNGDIVDADGYRVMELSGEWNRGLVGFRLDKSSGERVDAKSLWYAGEHKPAVKRDKYNFTNFTYELLEVPDNAESIIPPTDSRFRPDRRALEGNNLSLANLEKVRVENIQRERENQRQKTGTTYVPAWFYQDDNNEWHFGGKYWKETRNMSEDQKEQMKLW | not soluble
MSKKIILITGASSGFGRLTAEALAGAGHRVYASMRDIVGRNASNVEAIAGFARDNDVDLRTLELDVQSQVSVDRAIDQIIGEDGRIDVLIHNAGHMVFGPAEAFTPEQFAELYDINVLSTQRVNRAALPHMRRQKHGLLIWISSSSSAGGTPPYLAPYFAAKAAMDAIAVQYARELSRWGIETSIIVPGAFTSGTNHFAHSGVPDDHARQAEYEAGPNAGLGEEIKKAFAAIVPPDADVSLVADAIVRVVGTASGKRPFRVHVDPAEDGADVGFSVLDRLRAEMLHRVGLSDLLKPRALA | soluble
MGSDKIHHHHHHMESTMKLATAPDAWGVWYADDPRQTPWERYLDEVRDSGFTATETGPWGYLPTDPSHLTDALGSRGLSVCGSALVHLLAPADAMETLRPRLEQTCGLLKAMKAEWVVLMDDSDLPLPGQSRALSPHDWASMIRNIKDAARYVTEEHGLSFVFHPHVGSGVETEAEVIRLLEETSEDSVGLCFDFGHHAYTGADAVAFMKRYADRIPYYHFKNVDPVLLAHIRQNNINFIEGFQSGVMCELDKGMVDFAEVRDFLATRGFDGYAVYEQDMYPCPPEKPFPIACHNRQVLRELGI | not soluble
MSSEACTDPYLRCAFNGAALTALGISHSALLAHSPQGCEYLVNNAFASQECDYMETMTLCTKLCVDEIVHGGEDILARTIREVKDLPISALFVLSACGPEIVGDDIVGVCEALQPEVKFRLVPIESAGFRGSQYDGIDIAMDTILKKLVKDDVEKIPGSVCLEHHHHHH | not soluble
MSLKAIGFEQPFKLSDGNLFKTFNLDIPEPKVHEILVKIQSISVNPVDTKQRLMDVSKAPRVLGFDAIGVVESVGNEVTMFNQGDIVYYSGSPDQNGSNAEYQLINERLVAKAPKNISAEQAVSLPLTGITAYETLFDVFGISRNRNENEGKTLLIINGAGGVGSIATQIAKAYGLRVITTASRNETIEWTKKMGADIVLNHKESLLNQFKTQGIELVDYVFCTFNTDMYYDDMIQLVKPRGHIATIVAFENDQDLNALKPKSLSFSHEFMFARPLNQTDDMIKHHEYLEDITNKVEQNIYQPTTTKVIEGLTTENIYQAHQILESNTMIGKLVINLNEGHHHHHH | soluble
MRTLAVISAGLSTPSSTRQIADSISEAVTAAVSARGEALSVSTIELSELIPDLMTAMTTRVHTTKLEEITSALSASDGLVVATPVFKASYTGLFKMFFDILDTDALTGMPTIIAATAGSARHSLVLDYALRPLLSYMRAVVVPTGVFAATEDFGGPEGAEFNKRIARAAGELASLIVEESGNVGLEHHHHHH | not soluble
MKIINLQFPNKYSAKKKEFVLAMGYFDGLHLGHRAVIQQAKRIADKQHLKLALLTYSQSPAGFYVNDPVLKVPILPFRQKMQMLEKLGVDTIFLIDYNLTFGSQSPEDYVDNYLAKLGASVVVAGFDHTYGSLKDKADMKHLPRYANGRFEVYTVRECSDYFGKISSTRIRRLLSEGDLQAVNELLGYQFQTVGFVVHGNQIGRRIGFPTANQALEEKQLLPKSGVYAVRTKIVTGPLAGRSFNGMASIGRNETFGSDNPITIEINLFDFSADVYDEEIIVYWISFLREQVKYANAEALIDQLKQDRIDSLDLLKEIPKSKNYS | not soluble
MSLLALGIEGTAHTLGIGIVSEKKVLANVFDTLTTEKGGIHPKEAAEHHARLMKPLLKKALEKAGISMDDIDVIAFSQGPGLGPALRVVATAARALAIRYNKPIVGVNHCIAHVEITKMFGIKDPVGLYVSGGNTQVLALEGGRYRVFGETLDIGIGNAIDVFARELGLGFPGGPKLEKLAEKGKNYIDLPYAVKGMDLSFSGLLTEAIRKYRSGKFRVEDLAYSFQETAFAALVEVTERALAHTEKKEVVLVGGVAANNRLREMLKIMAEDRGVKFFVPPYDLCRDNGAMIAYTGLRMYKAGISFPLEKTIVKQKFRTDEVEITWEGHHHHHH | not soluble
MRILPQIMAAIVLASPALSQCGGGFSSFVDGLKAEAVSMGHDAALVDRFFQGAAQDAKVLKADRAQGVFQKPFVEFSRRLISQNRLDTGKAMGRKYDAVFDRIEAEYGVSRGVLLAFWAFETDFGGFQGDFNTRNALITLAHDCRRPELFRPQIFAAIELYSHGDFDPARTTGAWAGEIGMVQMLPRDILENGVDGDGDGHVTLKTSAPDALMSGARMLSHLGWRAGEPWLQEVTLPAQMDWSLSGPGKPRSAGEWQAMGVRPRAGDLADLPASLILPQGHKGPAFLAYPNFDVYFEWNQSFVYVLTAAYFGTRLEGGQVYDAGNPAPGLDGAGMKALQQKLQARGHDVGKIDGILGAGTRAAVQAEQARLGLPADAWPTAELLNRL | not soluble
MIKVALPKGRLFEETVDLLLKRGIIEKRIEEGRKLILEEGGITFFLVKPSDVPVYVESGVSDLGVCGYDVYLEKKPSVYRLMDLGIGFCRIAVAGKPESEEKYFSSTHISVATKYPNIAYEFFKKKGVKADIYYLNGSVELAPLVGLSDFILDLVQTGRTLKENGLIVIEEVGKSTAWLIANKDSFRIKNGQIMEFLSRLVQHNKDGLQVQGSSLEHHHHHH | not soluble
MVSQIGLLLPLSGDGQILGTTIQSGFNDAKGNSTIPVQVFDTSMNSVQDIIAQAKQAGIKTLVGPLLKQNLDVILADPAQIQGMDVLALNATPNSRAIPQLCYYGLSPEDEAESAANKMWNDGVRNPLVAMPQNDLGQRVGNAFNVRWQQLAGTDANIRYYNLPADVTYFVQENNSNTTALYAVASPTELAEMKGYLTNIVPNLAIYASSRASASATNTNTDFIAQMNGVQFSDIPFFKDTNSPQYQKLAKSTGGEYQLMRLYAMGADAWLLINQFNELRQVPGYRLSGLTGILSADTNCNVERDMTWYQYQDGAIVPVVDHHHHHH | soluble
MSLNTFWKSFPDVERSLTETCELIEQTLHTRNEDIEEALVTLARSGGKLLRPAFFFLFAQLGDEEKQEKQQLLKIAASLEILHMATLIHDDIIDDSPLRRGAVTIQSQYGKDVAVYTGDLLFTEFFTLIADAMNGSEFMKINAQGMKRLLLGELDQMSHRFDRRMSIPAYLRSVNGKTAELFSLSCLEGAYFGHSSKEVQRLAKRIGRHIGIAFQVYDDILDYTADTETLKKPALEDLSQGVYTLPLLFAYQAAPDVFSPYLDKGRAITLEEAAEVAALVNDYHGVTEAQAFAKKVTNKAITDIQQLPDGTAKETLLSLTELLLHRSFEGHHHHHH | soluble
